The values that follow come from patent publication US9731036 (dated 2017).

B1: CEACAM1-Ig fusion protein (extracellular portion of CEACAM1 fused to the Fc portion of human IgG1) (Fc fusion, UniProt P13688 35-428, looked up)
chain: QLTTESMPFNVAEGKEVLLLVHNLPQQLFGYSWYKGERVDGNRQIVGYAIGTQQATPGPANSGRETIYPNASLLIQNVTQNDTGFYTLQVIKSDLVNEEATGQFHVYPELPKPSISSNNSNPVEDKDAVAFTCEPETQDTTYLWWINNQSLPVSPRLQLSNGNRTLTLLSVTRNDTGPYECEIQNPVSANRSDPVTLNVTYGPDTPTISPSDTYYRPGANLSLSCYAASNPPAQYSWLINGTFQQSTQELFIPNITVNNSGSYTCHANNSVTGCNRTTVKTIIVTELSPVVAKPQIKASKTTVTGDKDSVNLTCSTNDTGISIRWFFKNQSLPSSERMKLSQGNTTLSINPVKREDAGTYWCEVFNPISKNQSDPIMLNVNYNALPQENGLSPG
notes: extracellular domain; Made in COS-7 cells, purified on protein G. A silent nucleotide change (A885G, glycine 281 unchanged) removes a BamHI site; also called CCM1-Ig; soluble CEACAM1-Ig; not shown: Fc portion of human IgG1

Experiment [1] concerns the target T1, CEACAM1 protein (CD66a), whole, on cells (human, UniProt P13688 35-526).
T1 construct: whole, on cells; also called CCM1
T1 sequence (looked up): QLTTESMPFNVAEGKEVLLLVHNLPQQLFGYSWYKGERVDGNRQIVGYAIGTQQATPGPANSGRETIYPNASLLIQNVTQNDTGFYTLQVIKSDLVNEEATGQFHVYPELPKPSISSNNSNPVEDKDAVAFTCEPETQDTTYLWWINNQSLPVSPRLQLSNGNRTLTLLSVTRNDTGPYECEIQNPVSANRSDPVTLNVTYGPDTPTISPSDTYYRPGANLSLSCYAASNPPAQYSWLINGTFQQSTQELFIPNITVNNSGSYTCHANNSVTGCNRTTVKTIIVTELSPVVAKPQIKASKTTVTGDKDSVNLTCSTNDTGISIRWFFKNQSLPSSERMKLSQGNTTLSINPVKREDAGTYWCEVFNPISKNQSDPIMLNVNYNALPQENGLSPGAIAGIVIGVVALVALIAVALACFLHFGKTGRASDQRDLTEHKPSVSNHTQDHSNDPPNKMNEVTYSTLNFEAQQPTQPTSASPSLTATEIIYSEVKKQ
Briefly: cell-based or functional assay.

Experiment [2] concerns the target T2, CCM1-Q44L (CEACAM1 with 44Q changed to 44L) (human, UniProt P13688 35-526).
T2 construct: whole, on cells; also called CEACAM1-Q44L
T2 sequence (looked up): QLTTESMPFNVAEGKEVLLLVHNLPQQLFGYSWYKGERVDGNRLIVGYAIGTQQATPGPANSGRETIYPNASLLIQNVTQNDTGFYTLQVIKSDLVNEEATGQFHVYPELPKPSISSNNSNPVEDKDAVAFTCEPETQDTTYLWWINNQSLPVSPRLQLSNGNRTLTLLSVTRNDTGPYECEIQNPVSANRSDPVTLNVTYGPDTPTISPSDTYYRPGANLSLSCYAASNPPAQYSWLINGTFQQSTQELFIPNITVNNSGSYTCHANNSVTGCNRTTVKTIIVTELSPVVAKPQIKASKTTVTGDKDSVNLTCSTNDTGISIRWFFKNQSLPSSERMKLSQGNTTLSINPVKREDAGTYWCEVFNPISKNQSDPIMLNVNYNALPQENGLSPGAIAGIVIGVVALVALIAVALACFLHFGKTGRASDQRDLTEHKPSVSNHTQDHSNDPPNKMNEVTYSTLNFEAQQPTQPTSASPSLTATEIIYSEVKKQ
Briefly: flow cytometry on 721.221 transfectants. An excerpt: (§1) The staining of the secondary reagent FITC-conjugated goat anti-mouse F(ab_)2 of each cell type was used as background (_). The y-axis indicates the median fluorescence intensity (MFI). […] The y-axis indicates the median fluorescence intensity (MFI). […] The E:T cell ratio was 2:1.
(§2) Specificity of CEACAM1 Binding to CEACAM6 is Controlled by the Presence of Both 43R and 44Q Residues To determine whether both residues are required for binding, the amino acid residues in positions 43 and 44 in CEACAM1 (contains 43R44Q) and CEACAM6 (contains 43S44L) were mutated. Using site-directed mutagenesis in the CEACAM1, the 43R residue was changed to 43A (CCM1-R43A) and the 44Q residue was changed to 44L (CCM1-Q44L). In CEACAM6, the 43S was changed to 43R (CCM6-S43R) and 44L was changed to 44Q (CCM6-L44Q). All mutants were generated as described in Materials and Methods and stably transfected into 0.221 cells. The expression level was monitored by Kat4c mAb, and conformation was monitored by 5F4 mAb (FIG. 7A). […] Similar results were obtained when both 44Q and 43R residues in CEACAM1 were mutated (FIG. 5).
A general note: A flow cytometer gives signals particle by particle.

The target of experiment [3] is T3, CCM1-RQ43,44SL (CEACAM1 with S and L at positions 43 and 44 instead of R and Q) (human, UniProt P13688 35-526).
T3 construct: whole, on cells; also called CEACAM 1-RQ43,44SL
T3 sequence (looked up): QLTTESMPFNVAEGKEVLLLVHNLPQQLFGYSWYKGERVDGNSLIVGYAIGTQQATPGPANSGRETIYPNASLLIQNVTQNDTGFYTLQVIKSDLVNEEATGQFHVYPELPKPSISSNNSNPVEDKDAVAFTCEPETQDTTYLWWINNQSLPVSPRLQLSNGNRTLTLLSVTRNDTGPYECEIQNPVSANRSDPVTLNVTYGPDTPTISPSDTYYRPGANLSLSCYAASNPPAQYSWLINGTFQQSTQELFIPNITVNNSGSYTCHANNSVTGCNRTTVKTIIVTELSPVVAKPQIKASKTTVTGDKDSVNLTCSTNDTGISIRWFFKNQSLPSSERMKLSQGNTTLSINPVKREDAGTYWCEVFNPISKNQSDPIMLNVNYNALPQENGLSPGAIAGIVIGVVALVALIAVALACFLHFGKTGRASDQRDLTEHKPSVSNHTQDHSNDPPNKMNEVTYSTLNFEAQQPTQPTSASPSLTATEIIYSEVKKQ
Nature of the experiment: flow cytometry on 721.221 transfectants.
Text: as §1, §2

Experiment [4] concerns the target T4, CCM1-R43A (CEACAM1 with 43R changed to 43A) (human, UniProt P13688 35-526).
T4 construct: whole, on cells; Expression lower than that of the other transfectants; also called CEACAM1-R43A
T4 sequence (looked up): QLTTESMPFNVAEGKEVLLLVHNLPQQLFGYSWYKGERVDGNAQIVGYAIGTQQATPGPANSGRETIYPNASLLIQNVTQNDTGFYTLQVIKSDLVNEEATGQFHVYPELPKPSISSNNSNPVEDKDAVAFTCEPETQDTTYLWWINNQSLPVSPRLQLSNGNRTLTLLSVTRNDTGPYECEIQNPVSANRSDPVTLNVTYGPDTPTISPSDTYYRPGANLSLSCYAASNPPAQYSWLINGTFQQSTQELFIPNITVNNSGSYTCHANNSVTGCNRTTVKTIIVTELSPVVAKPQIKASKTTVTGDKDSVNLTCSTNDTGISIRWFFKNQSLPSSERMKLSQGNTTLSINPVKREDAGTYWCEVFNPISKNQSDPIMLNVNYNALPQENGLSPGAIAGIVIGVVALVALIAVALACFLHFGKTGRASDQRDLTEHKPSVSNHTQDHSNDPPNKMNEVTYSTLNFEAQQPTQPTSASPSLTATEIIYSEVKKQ
Nature of the experiment: flow cytometry on 721.221 transfectants.
Text: as §1, §2

Experiment [5] concerns the target B1. Nature of the experiment: flow cytometry on 721.221 transfectants.
Text: as §1, §2

As for “mAb Kat4c (DakoCytomation), directed against CEACAM1, -5, -6, and -8 (antibody)”, in experiment [1], the intracellular IFN-gamma staining of the NKT clone after cross-linking with Kat4c (fold above background) is 4.5. Regarding B1, the binding result in experiment [2], in experiment [3] and in experiment [4] was “no binding” throughout.

B2: CCM6-TailCCM1 (entire extracellular portion of CEACAM6 fused to the transmembrane and tail portions of CEACAM1) (receptor, human, UniProt P40199 35-320, looked up)
chain: KLTIESTPFNVAEGKEVLLLAHNLPQNRIGYSWYKGERVDGNSLIVGYVIGTQQATPGPAYSGRETIYPNASLLIQNVTQNDTGFYTLQVIKSDLVNEEATGQFHVYPELPKPSISSNNSNPVEDKDAVAFTCEPEVQNTTYLWWVNGQSLPVSPRLQLSNGNMTLTLLSVKRNDAGSYECEIQNPASANRSDPVTLNVLYGPDVPTISPSKANYRPGENLNLSCHAASNPPAQYSWFINGTFQQSTQELFIPNITVNNSGSYMCQAHNSATGLNRTTVTMITVSGAIAGIVIGVVALVALIAVALACFLHFGKTGRASDQRDLTEHKPSVSNHTQDHSNDPPNKMNEVTYSTLNFEAQQPTQPTSASPSLTATEIIYSEVKKQ
notes: extracellular domain;domain: transmembrane and tail portions
On to B2, for which the binding result in experiment [5] was “no binding”.

B3: CCM6-SL43,44RQ (CEACAM6 with R and Q at positions 43 and 44 instead of S and L) (receptor, human, UniProt P40199 35-320, looked up)
chain: KLTIESTPFNVAEGKEVLLLAHNLPQNRIGYSWYKGERVDGNRQIVGYVIGTQQATPGPAYSGRETIYPNASLLIQNVTQNDTGFYTLQVIKSDLVNEEATGQFHVYPELPKPSISSNNSNPVEDKDAVAFTCEPEVQNTTYLWWVNGQSLPVSPRLQLSNGNMTLTLLSVKRNDAGSYECEIQNPASANRSDPVTLNVLYGPDVPTISPSKANYRPGENLNLSCHAASNPPAQYSWFINGTFQQSTQELFIPNITVNNSGSYMCQAHNSATGLNRTTVTMITVSG
notes: whole, on cells; also called CEACAM6-SL43,44RQ
Turning to B3, the binding result in experiment [5] is listed as “binds”.

B4: CCM6-L44Q (CEACAM6 with 44L changed to 44Q) (receptor, human, UniProt P40199 35-320, looked up)
chain: KLTIESTPFNVAEGKEVLLLAHNLPQNRIGYSWYKGERVDGNSQIVGYVIGTQQATPGPAYSGRETIYPNASLLIQNVTQNDTGFYTLQVIKSDLVNEEATGQFHVYPELPKPSISSNNSNPVEDKDAVAFTCEPEVQNTTYLWWVNGQSLPVSPRLQLSNGNMTLTLLSVKRNDAGSYECEIQNPASANRSDPVTLNVLYGPDVPTISPSKANYRPGENLNLSCHAASNPPAQYSWFINGTFQQSTQELFIPNITVNNSGSYMCQAHNSATGLNRTTVTMITVSG
notes: whole, on cells; also called CEACAM6-L44Q
Consider B4, for which the binding result in experiment [5] is given as “no binding”.

B5: CCM6-S43R (CEACAM6 with 43S changed to 43R) (receptor, human, UniProt P40199 35-320, looked up)
chain: KLTIESTPFNVAEGKEVLLLAHNLPQNRIGYSWYKGERVDGNRLIVGYVIGTQQATPGPAYSGRETIYPNASLLIQNVTQNDTGFYTLQVIKSDLVNEEATGQFHVYPELPKPSISSNNSNPVEDKDAVAFTCEPEVQNTTYLWWVNGQSLPVSPRLQLSNGNMTLTLLSVKRNDAGSYECEIQNPASANRSDPVTLNVLYGPDVPTISPSKANYRPGENLNLSCHAASNPPAQYSWFINGTFQQSTQELFIPNITVNNSGSYMCQAHNSATGLNRTTVTMITVSG
notes: whole, on cells; also called CEACAM6-S43R
As for B5, the binding result in experiment [5] was “no binding”.
